Several values for one entry are separate records, joined by “and”; a condition that tells them apart may be missing. Equal values may be shown once.
Experiments:
[1] = biological target: T1, p50/RelA-FL: p50 subunit (39-350);RelA-RHD (no TAD) (murine;murine, UniProt P25799;Q04207 39-350;19-321, |); assay: fluorescence anisotropy; SEC buffer 25 mM Tris pH 7.5, 150 mM NaCl, 0.5 mM EDTA, 1 mM DTT (FA buffer not stated explicitly; 5 nM DNA, RT incubation, read at 25 C); EMSA: SEC buffer 1:1; conditions: protein: recombinant;recombinant, tags: N-terminal His6;none, copies: 1;1
T1 sequence (P25799 39-350, chain 1 of 2): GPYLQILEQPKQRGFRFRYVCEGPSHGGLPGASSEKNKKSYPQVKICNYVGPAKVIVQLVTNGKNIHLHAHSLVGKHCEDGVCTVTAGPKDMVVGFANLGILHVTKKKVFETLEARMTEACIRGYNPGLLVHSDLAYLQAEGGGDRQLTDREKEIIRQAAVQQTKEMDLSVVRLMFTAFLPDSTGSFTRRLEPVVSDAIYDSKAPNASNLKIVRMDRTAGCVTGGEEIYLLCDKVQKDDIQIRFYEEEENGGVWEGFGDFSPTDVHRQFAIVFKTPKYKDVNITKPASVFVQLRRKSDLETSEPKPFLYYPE
T1 sequence (Q04207 19-321, chain 2 of 2): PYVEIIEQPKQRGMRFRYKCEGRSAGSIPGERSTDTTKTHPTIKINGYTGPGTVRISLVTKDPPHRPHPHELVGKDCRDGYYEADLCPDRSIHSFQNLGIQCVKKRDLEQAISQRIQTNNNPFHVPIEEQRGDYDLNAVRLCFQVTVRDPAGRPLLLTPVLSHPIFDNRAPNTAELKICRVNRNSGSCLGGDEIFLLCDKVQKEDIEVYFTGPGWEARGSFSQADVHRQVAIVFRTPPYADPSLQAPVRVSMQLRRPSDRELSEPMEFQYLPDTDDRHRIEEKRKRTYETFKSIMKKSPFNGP

[2] = biological target: T2, p50/RelA-FL: p50 subunit (39-350);RelA-FL (RHD + TAD) (murine;murine, UniProt P25799;Q04207 39-350;19-549, |); assay: as above; conditions: protein: recombinant;recombinant, tags: N-terminal His6;none, copies: 1;1
T2 sequence (P25799 39-350, chain 1 of 2): as the sequence (P25799 39-350, chain 1 of 2) above
T2 sequence (Q04207 19-549, chain 2 of 2): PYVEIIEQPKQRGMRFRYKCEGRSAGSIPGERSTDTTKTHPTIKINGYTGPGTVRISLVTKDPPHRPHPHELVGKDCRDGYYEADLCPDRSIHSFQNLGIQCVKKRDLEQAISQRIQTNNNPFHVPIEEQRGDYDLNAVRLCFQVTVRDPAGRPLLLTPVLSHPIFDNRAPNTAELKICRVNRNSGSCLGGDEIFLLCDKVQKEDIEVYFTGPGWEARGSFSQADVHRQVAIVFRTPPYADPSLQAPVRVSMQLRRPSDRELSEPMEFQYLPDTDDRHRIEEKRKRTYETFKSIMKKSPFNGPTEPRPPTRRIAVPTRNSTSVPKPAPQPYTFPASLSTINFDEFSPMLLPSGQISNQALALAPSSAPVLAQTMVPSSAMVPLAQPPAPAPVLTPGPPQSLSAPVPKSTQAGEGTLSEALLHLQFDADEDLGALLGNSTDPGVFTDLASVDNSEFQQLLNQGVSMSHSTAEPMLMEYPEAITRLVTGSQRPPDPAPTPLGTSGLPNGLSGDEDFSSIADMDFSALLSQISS

[3] = biological target: T1, p50/RelA-FL: p50 subunit …; assay: EMSA; SEC buffer 25 mM Tris pH 7.5, 150 mM NaCl, 0.5 mM EDTA, 1 mM DTT (FA buffer not stated explicitly; 5 nM DNA, RT incubation, read at 25 C); EMSA: SEC buffer 1:1; conditions: protein: recombinant;recombinant; tags: N-terminal His6;none; copies: 1;1
[4] = biological target: T2, p50/RelA-FL: p50 subunit …; assay: as above; conditions: protein: recombinant;recombinant; tags: N-terminal His6;none; copies: 1;1
[5] = label: 5' fluorescein (FITC), hairpin
[6] = label: 5' fluorescein on forward or reverse strand

Binder | Kd [1, 5] [nM] | Kd [2, 5] [nM] | binding result [3] | binding result [4] | Kd [1, 6] | Kd [2, 6]
GGGAAAGTACTCCCCCAGTACTTTCCC (structured_DNA, 5' 5AmMC6 amino linker) [Urokinase (UK) hairpin] | 6.3 ± 1.5 | 2.2 ± 0.6 | – | – | – | –
HIV LTR tandem 33 bp (dsDNA) DNA 1: AAGGGACTTTCCGCTGGGGACTTTCCAGGGAGG DNA 2: CCTCCCTGGAAAGTCCCCAGCGGAAAGTCCCTT | – | – | binds | binds | – | –
HIV LTR tandem dsDNA (FA) (dsDNA) DNA 1: CAAGGGACTTTCCGCTGGGGACTTTCCAGG DNA 2: CCTGGAAAGTCCCCAGCGGAAAGTCCCTTG | – | – | – | – | 1.7 ± 0.4 nM | 1.3 ± 0.4 nM
NFKBIA tandem 59 bp (dsDNA) DNA 1: CTGACTGGCTTGGAAATTCCCCGAGCCTGACCCCGCCCCAGAGAAATCCCCAGCCAGCG DNA 2: CGCTGGCTGGGGATTTCTCTGGGGCGGGGTCAGGCTCGGGGAATTTCCAAGCCAGTCAG | – | – | binds | binds | – | –
GTAGACGTGCTCCCCCAGCACGTCTAC (structured_DNA, 5' 5AmMC6 amino linker) [Random hairpin] | 1500 ± 100 | 130 ± 40 | – | – | – | –
NFKBIA tandem dsDNA (FA) (dsDNA) DNA 1: CTTGGAAATTCCCCGAGCCTGACCCCGCCCCAGAGAAATCCCCAG DNA 2: CTGGGGATTTCTCTGGGGCGGGGTCAGGCTCGGGGAATTTCCAAG | – | – | – | – | 1.7 nM and 10 nM | 1.5 nM and 5.1 nM

From article PMC9440430, “An intrinsically disordered transcription activation domain increases the DNA binding affinity and reduces the specificity of NFκB p50/RelA”
